This data set deals with T1, E4BP4-DBD (NFIL3 DNA-binding domain) (zebrafish, UniProt Q68EL6 18-164).
T1 sequence: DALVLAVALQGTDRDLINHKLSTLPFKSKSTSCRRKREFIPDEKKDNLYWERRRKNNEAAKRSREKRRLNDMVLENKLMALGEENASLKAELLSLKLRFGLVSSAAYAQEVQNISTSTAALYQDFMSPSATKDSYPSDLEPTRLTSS
Put plainly: EMSA; not given; EMSA performed as in an earlier cited paper (ref 25). The conditions noted are these: protein: recombinant; tags: N-terminal His6; additional pET-30a(+) vector residues; chain copies: 2. (In general: A gel shift assay detects complexes by their altered migration in electrophoresis.)

B1: probe a (dsDNA)
DNA 1: AATAAATGTTACATAATCCAAAGTC
DNA 2: GACTTTGGATTATGTAACATTTATT
In the case of B1, the binding result is recorded as “binds”.

B2: probe e (E4BP4 site E11) (dsDNA)
DNA 1: TGGTCAGTATTGTTATTACATAAGACATCAGCAAT
DNA 2: ATTGCTGATGTCTTATGTAATAACAATACTGACCA
In the case of B2, the binding result is on record as “binds”.

B3: probe d (dsDNA)
DNA 1: ATTGGTTCATTATGTAACTTTCCCAT
DNA 2: ATGGGAAAGTTACATAATGAACCAAT
Consider B3, for which the binding result is recorded as “binds”.

B4: probe c (dsDNA)
DNA 1: ATTAAATTTTATGTAAAAATATGT
DNA 2: ACATATTTTTACATAAAATTTAAT
Turning to B4, the binding result was “binds”.

B5: probe b (dsDNA)
DNA 1: GTAAGCTTTTATGTAAGTATTTTG
DNA 2: CAAAATACTTACATAAAAGCTTAC
With B5, the binding result is listed as “binds”.

The values are drawn from PMC3546842, “Using BAC transgenesis in zebrafish to identify regulatory sequences of the amyloid precursor protein gene in humans”.
